Results published in the DeepSol protein solubility set.

Experiment: soluble on expression in E. coli; label from the status in PepcDB or PDB records

| Sequence | soluble on expression in E. coli |
| --- | --- |
| MGSDKIHHHHHHMRVKHFELLTDEGKTFTHVDLYGKYTILFFFPKAGTSGCTREAVEFSRENFEKAQVVGISRDSVEALKRFKEKNDLKVTLLSDPEGILHEFFNVLENGKTVRSTFLIDRWGFVRKEWRRVKVEGHVQEVKEALDRLIEEDLSLNKHIEWRRARRALKKDRVPREELELLIKAAHLAPSCMNNQPWRFVVVDEEELLKKIHEALPGGNYWMKNAPALIAVHSKKDFDCALPDNRDYFLFDTGLAVGNLLVQATQMGLVAHPVAGYDPVKVKEILKIPEDHVLITLIAVGYLGDESELSEKHRELERSERVRKELSEIVRWNL | not soluble |
| MGSDKIHHHHHHMRVLAAMSGGVDSAVAAARAVEAGHDVVGVHLALSRMPGTLRTGSRGCCTIEDSRDAWRACDVLGIPYYVWDFSERFKEDVVQDFIDEYAAGRTPNPCMRCNERIKFAALLEKAIALGFDAVCTGHYAKVITDADGNPELHRAADWAKDQSYVLGVLTHEQLKHSMFPLADTPSKAEVRAEAERRGLSVANKPDSHDICFIPDGDTAGWLAEKIEMTTGDIVDEAGTKVGEHPGANAFTVGQRRGLKLGTPAADGKPRFVLEIRPKENKVVVGPEALLAIDEIRGIKVSWAGLPIAEVATGDEFDCHAQVRAHGDPVPATARMERLTDDDGAERTNLVVTLATPLRGVAPGQTVVLYQGSRVLGQATIDTARSLQRAAL | not soluble |
| MGSDKIHHHHHHMRVSSDDALFYRIEAFFRGRAYGPHRHDTYAVGITTAGIQSIRYRGELVHSSPGDTVVIHPDEIHDGRAGTVAGYCYRIVHLQPEALQQILGQTSLPFIKEGVSQNAQLYQAIWAMLREFDRPLEPLERTDLLFDLAMALQAAAGTAKAKHTGNIKAALIARDCIRSAPSQRIELDVLARESGRDRWSLSRDFRQFFGTSPSRYMTMRRLDIARRLMSNGTPLAECAVAVGFADQSHMSRQFVEAFGLTPTRWLTMLR | not soluble |
| MGSDKIHHHHHHMRVSVRNLTKIFRVGSIFSLKKLVAIDNVSFEIGSGEIFSLAGESGCGKTTTAKILLGLEEPTNGEVLYDGIKLKDFVENEMHFLKKVQTVQQNPFSTFNPFRKVEDYLFKTVLRFKMANTKDEALRLIEEKLSVVGLNFDEIKGRYPSEFSGGQLQRISIARALLTNPSFLVADEPVSMIDASLRISIVNLFRDLKERFGISILYITHDLSTAYYVADKLAIMFRGSIVEMGRAQDILDTPFHPYTKLLKSSIPVPDPEYEWDENINLSSTEREEFFAKGCKFASRCPEVMSICRESVPPDFDVNGRVVKCWLYK | not soluble |
| MGSDKIHHHHHHMRYAIYFSPAKDHPLTEAASRWLGRNAFSGTLHDDHDDYADLTEEPRRYGFHATLKAPFELAEKYSEAELLAAVEDFAANQSAFEIPRVVVGALGPFFALVPDRVYQPLQDFAAEVVDHFDRFRAPLSETDIARRRPQMLTESQRQNLSLWGYPHVMDDFRFHMTLTGRIDEEEQPAMQEILSTRFAEFVDQPLAISGLALFIEETRGAPFTVHRWHPLGQQPKKDANP | not soluble |
| MGSDKIHHHHHHMRYLRADERCLICSLRQAENLLKKTITSPEKRWVIFREVFRIMSEMKWGMKPLEVNGEVHRFIMEYIKEEDPFKEEKRRSNDMAIKLVEMFRPEILNSPDPVYSAAKLAVSGNLIDLGIPGWSVDEIFEKLHEVYERPFDREDFEKFRNVLMNASTLFYVADNAGEIVFDKFFIEVLKMENPSLEVVVAVRGKPIINDATIEDAKYIGLEEIATVISSGVDEPGVMLDKASEEFRKAFFEFDVVISKGQGNFEGLYEEEKKNLFFLLTAKCDFVAEVLNVPLGGKVFISSSSL | not soluble |
| MGSDKIHHHHHHMRYRKLSDYLKERYGERVQRIVIHGGFSCPNRDGTKGKGGCIYCDATGSGFTTLMRLPIREQVMEMKKKYEKRGIKKFIAYFQSFSNTYAPVEMLRERYEEALVDDSIVQLSVSTRPDLVPERVLDLFEEFKKRVDVSVELGLQTANYRTLKKINRGHTLAEFVDAAVRVKKRGIELVVHVILNLPWDDMEDVVETAKILSALDVDGVKLHSLYVVEGTKLAEMYKKGEVKICSLEEYIDRAITFLEYLSPNVVIHRLVADPPRKGTIFGNWGKSKIEIINMIEEELERRDTYQGKKFDYLNR | not soluble |
| MGSDKIHHHHHHMRYVILARNLDSKAGGISVYGRNLIKKLEAKGIDVIISPKEKFSYFKWLLFDVPIFILKTDADVYHAIGIIEGILLPFIKPRAKKYLTVHDLIPLKYKGRGFRKILERFLVRLGLFSARFYDKIFAVSHLTKLDVIRFGGIDENKIEVVYQPIDDKFLKTPTSGKRHKTFNIGYISRMEAYKRHELLIKLFMKYKNPNARLYLAGTGPLFKKIQKLAEEDKRIILLGFVPDDKIVEFYDMLDVYIHPSKYEGWGLPIVEATARKKPVIIFEDAEIPREVKYLCLSIDFNIINPLISNLKYLKKVGVIKNKAWRRIYENSICH | not soluble |
| MGSDKIHHHHHHMRYVIVGSGPAGLNAIEAIREVDKEGEILLITAEKYVGYSRPLITYLLGRKVTEEKMYYRTEDYLREMRVDIKPATRVEKVIPEEKTVVTDSGEEIRYDKLLIATGGKPFVPNIEGLTGKKGVFTFTTWEDEEKVEKYIEENDVKEAVVLGGGLIGLKTTEALMELGVKVTIVELADRILSVTFDRKASEIITEALKKEGCSVITNDTVVKVNGDDTVSSVVLKSGKEIPTKLLVIAIGVKPNVEFLKDSGIEINRGIVVNEKMETNVEGVYAAGDCTEFYDLIDGQRKTIAIWPVAVAQGRVAGYNMAGKNVRYPGGIPMNSVELAGIPTISVGHSNVEDGGYEILTFEEGNTYKKMVLKDNRLVGAILVNDIDRAGIYTGLILQKLDVSSFKDRLLDENFGLVYLPKEFRKKMLEGEIKIWLE | not soluble |
| MGSDKIHHHHHHMSDCQAKPETNYLSTSSGKYLTAFQRKLLLQNLQKSLVESYRQRIEIMLLADEGKTQRSICQTLGCCAATARHWTHIARSGMAHQWQDCPIGRPKAVNDQYLERLKELVNSSPRAHGYAFRRWTANWLGKHLAKEFGIEVSDRHIKRLLKQMGLSTLPKPSNVEQNSTEQVQGSKILICDLQSAGIPDDSEFLPINFAKLGKHLDIHGAKYICSVAYSATVQQYSGSFSFYRGISTLSSTS | not soluble |
| MGSDKIHHHHHHMSDLDRATLLDATGVAKSFGAVRALTDASLHVGAGEVVALMGANGAGKSTFVKILTGALRPDAGRVLIRGEVARTGSPAQARRSGLVPVYQEPSLIPDLDVADNLRLGDTPSDAVLHWMNELGINGLRFDDMISDLPLATLRILDLARALASQPDVLLLDEMTAALPTNLVENVLRVVRAQADAGCGVIYISHRFTEIAELCDSATILRDGRTVGDLQIEPGVENRCVELMLGAKLSLDKRDAGALRQNTGVPRLRASQIAVAPTVSDVSFDLYPGEVLGVVALEGQGQDEVFNVLSGHQKPTGGALQVDGTSVSFSHPADAIAAGLSYVPGDRAEALLRERSVRENIALPFSARLRDWGPLKTRHERHRVDHAIEKLQIDTRAQGEVQRLSGGNQQKVTIGRWLAHGVRTLLLFDPTRGIDVRTKRQIYPLVRELAEQGAAVLFYTSELDEIPLACDRAIVIFNGRVVNVVNAADATEEVLMRAAYGLTDVSAAS | not soluble |
| MGSDKIHHHHHHMSDSQTVSAAVAKLYNTYPFPPEALLDEPPPGYNWRWNWLAAHNFCTGQKPQKQDIRILDAGCGTGVSTEYLVHLNPQASVVGIDLSTGALDVAKERCQRSGANRVEFHHLSLFDVEQLPGEFDLINCVGVLHHTSDPIRGIQALAQKLAPGGLMHIFVYGELGRWEIQLMQKAIALLQGDKKGDYRDGVQVGRQIFASLPENNRIVKYEKQRWSLENHKDEHFADMYVHPQEIDYNIETLFELIDASGLEFIGFSNPSFWDLERLLSKAPELVERAKELSDRQLYRLIELLDPEVTHYEFFLGRPPLVKTDWSDDKALLAAIPELNPCIEGFPSQCFFNYNYQIVNLSEPEFEFMQKCDANSTVAEILADVQLGLDEVRKLLQQQLILLAPA | not soluble |
| MGSDKIHHHHHHMSDTITFWGVRGSIACPFPGHMAYGGNTSCVALGLGGQTVILDAGTGIRALGASAALRGVSRLALLFSHVHRDHIEGFPFFAPAHDRAVRLDIFAGPIEGASIRQLLDNLMSRPMFPLSLDQLRAQKVFHDLPAATAFTLFERIKVRTAALNHPGGATAYRFEHGGRVVCYVTDTEHRPGQPDAGLLELIAGADYVLYDSTYTDREFAAHRGWGHSTWEEGVRLCRQAGARHLVIFHHDPDHDDAAMAAIETAARAAWGGTLVAREGMTIALDSGVVTQAGR | not soluble |
| MGSDKIHHHHHHMSEESIIVVGGGIAGLTGAALLSKEGYQVTLVEAHSQLGGCAGTFKRGSYTFDVGATQVAGLERGGIHHRLFNYLDIPLPDAKILDPGCSVTLGDGSRPINLWHDPLRWQKERQEQFPGSEIFWSLCSKIHESNWEFVERDPILPVRNFWDLSQLIRAIRPSNLLTGFLSKLTIADLLTITGCHKDRRLRSFLDLQLKLYSQEPASRTAALYGATVLQMAQSPRGLWHLHGSMQILSDLLKDSFLRDGGSLLIGHRVTKIIRKENSNVFDVKVLDRRKNLLQMKASDIVFSLPPQSLLDLIPIDGGLSTTYRESIKKLPKPSGAVVFYGALRRVDLPVDCPGHIQVFDEHFGSLFISISLENDQRAPIGMATLIASVFVDIDQWSNLDSQAYTRKKSVVSKQIRAILDHKFDLLETSWDHQELSTPRSFERWTGRPSGIVGGLGQHPDQFGPFGLSSRTPLKGLWLCGDSIYPGEGTAGVSQSALMVVRQLLESKGRHLNIPVFN | not soluble |
| MGSDKIHHHHHHMSEFDVAVIGAGPAGSSAAIRLAQNGMNVLLVERGDPPGTKNVSGAVLWGNELAKVVPDWERSAPVERYVTRKEVAFLTEKSKIAISFSSEELQNSKSGKIIVRGKFDQWLAKKAKDAGAMLVTGVTVDRLAIDNGKVIGIQQDNDVITADAVVVAEGANPRVLINSGLRPKLSDRDVALGIKETIKLPENVINERFNVDSKSGFASEFVLGFLDDGLLSGGFLYTNKDTVSLGIVASLDRLRANGVTHSYDIMGKFEEHPFIKNLIKDGIPDEYAAHLVPEGGISSMPKLYGNGYLVAGDAAAFTFSNGMVLQGINYAITSGILAADTIIENRNNINENTLAKYVDKLRESYVLSDLYNFNGIQNVTWSDFVQKSLPTLAESVMMSLFDEKGMPKKHLRQIVTDAMKSGHMKYSDLITNGYRVIKRM | not soluble |
| MGSDKIHHHHHHMSELNNQLWASADILRGKMDASEYKNYLLGLVFYKYLSDQELRAVYEEEQGKVAEYPSRDEQFSGLLDWYNDDAAGIREIISKKLGYFIEPDSLFYTFRKKAGEYELHISDIQNAFIELGRQGEHFAGLFDDVDLASTKLGANAQQRNVTITEVIKALDEIDLFGHDGDVIGDAYEYLIGQFAAGAGKKAGEFYTPQAVSKIISEIVAIGQEETAPFHIYDPTMGSGSLMLNIRRFVKNPGQVHYHGQELNTTTYNLARMNLILHNVEQSQMRLRNGDTLDEDWPTDEPYLFNAVVMNPPYSANWSADGKFLSDPRFEQYGKLAPKSKADFSFLLHGFYHLNEKGTMGIVLPHGVLFRGASEGVIRKTLLDMGAIEAVIGLPANIFYGTSIPTVVLILKKNRAKRDVLFIDASKAFEKQKNQNCIRSQDIRKIVDTYKKRSSSPQYAHLADYDEIVRNDYNLNIPRYVDTFEEEAPIDIVALSKEITDLNLQIKQREAEFLGMLSQLAITDETKELIEATKGIFM | not soluble |
